Laboratory results published in publication PMC10606890, “Studying the Association of TKS4 and CD2AP Scaffold Proteins and Their Implications in the Partial Epithelial–Mesenchymal Transition (EMT) Process” (International Journal of Molecular Sciences, 2023).

Target: T1, Myc-DDK-tagged human CD2-associated protein (human, UniProt Q9Y5K6 1-639)
T1 construct: human CD2-associated protein (CD2AP), full-length protein; also called Myc-tagged CD2AP; Myc-CD2AP recombinant protein; source: bought: Origene Technologies (RC210191), recombinant protein
Experiment: peptide or protein array; PepStar microarray of 225 TKS4 15-mers (11 overlapping residues) on a glass slide, three subarrays; recombinant Myc-CD2AP incubated 1 h at 30 °C in SmartBlock solution, TBS washes, detected with Alexa Fluor 488 anti-Myc-tag antibody; threshold 10,000 U
Conditions: both partners purified

T1 sequence (Q9Y5K6 whole entry): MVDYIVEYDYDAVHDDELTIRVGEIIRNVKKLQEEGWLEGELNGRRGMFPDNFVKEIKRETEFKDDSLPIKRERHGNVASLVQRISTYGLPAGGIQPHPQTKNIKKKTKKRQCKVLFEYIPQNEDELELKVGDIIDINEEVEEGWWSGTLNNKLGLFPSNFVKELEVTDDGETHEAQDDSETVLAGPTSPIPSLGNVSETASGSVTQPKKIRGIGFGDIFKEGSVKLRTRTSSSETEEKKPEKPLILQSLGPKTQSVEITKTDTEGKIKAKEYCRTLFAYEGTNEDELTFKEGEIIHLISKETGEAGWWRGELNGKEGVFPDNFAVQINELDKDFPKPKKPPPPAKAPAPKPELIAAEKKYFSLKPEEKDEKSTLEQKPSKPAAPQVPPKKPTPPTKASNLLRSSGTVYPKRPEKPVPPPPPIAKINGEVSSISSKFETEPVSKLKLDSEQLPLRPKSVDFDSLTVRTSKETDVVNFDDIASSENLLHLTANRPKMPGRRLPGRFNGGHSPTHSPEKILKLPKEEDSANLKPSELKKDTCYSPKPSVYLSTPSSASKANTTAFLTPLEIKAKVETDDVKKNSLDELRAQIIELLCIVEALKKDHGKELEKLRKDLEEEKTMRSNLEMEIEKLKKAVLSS

Row | Binder | binding result
1 | EAPQQRPVVPPRRPP (peptide, UniProt A1X283 749-763, looked up, contains the motif 755-PVVPPR-760; source: synthetic peptide printed on a glass slide; bought: JPT Peptide Technologies (PepStar microarray)) [TKS4 peptide 188 (15-mer of the PepStar peptide microarray)] | binds
2 | QRPVVPPRRPPPPKK (peptide, UniProt A1X283 753-767, looked up, contains the motif 755-PVVPPR-760; source: synthetic peptide printed on a glass slide; bought: JPT Peptide Technologies (PepStar microarray)) [TKS4 peptide 189 (15-mer of the PepStar peptide microarray)] | binds
